The supplement of paper PMC7125110
± gives the standard error. Variants at the floor of the assay were thinned out.

B1: glmS ribozyme (parent)
chain: AUAAAAGCGCCAGAACUACAGAAAUGUAGUUGACGAGGAGGAGGUUUAUCGAAUUUUCGGCGGAUGCCUCCAAA

Columns and labels:
Settings in all cases: with glucosamine-6-phosphate
glucosamine-6-phosphate [1] = variants of: B1; experiment: self-cleavage kobs at 40 uM GlcN6P; higher = faster cleavage; RNA array
In short: (§1)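 Glucosamine-6-phosphate, from 40 μM to 10 mM in HEPES/KCl/Mg(OAc)2 buffer, was flowed over sequenced MiSeq chips carrying barcoded ribozyme variants transcribed in situ by E. coli RNA polymerase. A hybridised Cy3 probe tracked the variants at 37 °C as tiles were imaged over ~14 h. kobs, kcat and KM were obtained by fitting normalised per-tile medians to exponential decays and then applying weighted Michaelis–Menten fits across concentrations.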

glucosamine-6-phosphate [2] = variants of: B1; experiment: self-cleavage kobs at 640 uM GlcN6P; higher = faster cleavage; RNA array
In short: as §1

glucosamine-6-phosphate [3] = variants of: B1; experiment: self-cleavage kobs at 2500 uM GlcN6P; higher = faster cleavage; RNA array
In short: as §1

glucosamine-6-phosphate [4] = variants of: B1; experiment: self-cleavage kobs at 10000 uM GlcN6P; higher = faster cleavage; RNA array
In short: as §1

glucosamine-6-phosphate [5] = variants of: B1; experiment: self-cleavage kobs at 160 uM GlcN6P; higher = faster cleavage; RNA array
In short: as §1

Variant	self-cleavage kobs at 40 uM GlcN6P (glucosamine-6-phosphate [1])	self-cleavage kobs at 640 uM GlcN6P (glucosamine-6-phosphate [2])	self-cleavage kobs at 2500 uM GlcN6P (glucosamine-6-phosphate [3])	self-cleavage kobs at 10000 uM GlcN6P (glucosamine-6-phosphate [4])	self-cleavage kobs at 160 uM GlcN6P (glucosamine-6-phosphate [5])
C10A U45G	< 1e-05 s⁻¹	< 1e-05 s⁻¹	< 1e-05 s⁻¹	< 1e-05 s⁻¹	
A33C A52C C71A	< 1e-05 s⁻¹	< 1e-05 s⁻¹	< 1e-05 s⁻¹		
U54A G60C	< 1e-05 s⁻¹	< 1e-05 s⁻¹		< 1e-05 s⁻¹	
C8U G13U A39C	< 1e-05 s⁻¹				
G7U G40C G43C	< 1e-05 s⁻¹			< 1e-05 s⁻¹	
A6G G43U C67U	< 1e-05 s⁻¹	< 1e-05 s⁻¹		< 1e-05 s⁻¹	< 1e-05 s⁻¹
C10A A14G G44C	< 1e-05 s⁻¹		< 1e-05 s⁻¹	< 1e-05 s⁻¹	
C11A G44A	< 1e-05 s⁻¹	< 1e-05 s⁻¹	< 1e-05 s⁻¹	< 1e-05 s⁻¹	
G7A A14C G40A U49A C71U	< 1e-05 s⁻¹				
U47C C58U C71U	< 1e-05 s⁻¹			3.48e-05 ± 1.1e-05 s⁻¹	
C50G C58A	5.49e-05 ± 1.6e-05 s⁻¹	0.000175 ± 4.4e-05 s⁻¹	0.000194 ± 3.7e-05 s⁻¹	3.98e-05 ± 1.7e-05 s⁻¹	0.000151 ± 4.4e-05 s⁻¹
G29U G41A C58U	< 1e-05 s⁻¹			< 1e-05 s⁻¹	
G35A A36C	< 1e-05 s⁻¹	< 1e-05 s⁻¹	< 1e-05 s⁻¹		< 1e-05 s⁻¹
G9U G44C A64C	< 1e-05 s⁻¹			< 1e-05 s⁻¹	
A36G C71A	< 1e-05 s⁻¹	< 1e-05 s⁻¹	< 1e-05 s⁻¹		< 1e-05 s⁻¹
C34A U45G C68U C71A	< 1e-05 s⁻¹		< 1e-05 s⁻¹	< 1e-05 s⁻¹	< 1e-05 s⁻¹
C8A G40A G63A	< 1e-05 s⁻¹			< 1e-05 s⁻¹	
A36U G37U G40A A52C C58U	< 1e-05 s⁻¹				
G9U G43U C70G	< 1e-05 s⁻¹			< 1e-05 s⁻¹	
G32A G40U A42U G44C C67G	< 1e-05 s⁻¹			< 1e-05 s⁻¹	
G41A G59C C68A	< 1e-05 s⁻¹		< 1e-05 s⁻¹	< 1e-05 s⁻¹	
C16U G32C G40U C58U	< 1e-05 s⁻¹				
A39U G60C	< 1e-05 s⁻¹		< 1e-05 s⁻¹	< 1e-05 s⁻¹	< 1e-05 s⁻¹
C34G G41U C58U	< 1e-05 s⁻¹			< 1e-05 s⁻¹	

Variant	self-cleavage kobs at 40 uM GlcN6P (glucosamine-6-phosphate [1])	self-cleavage kobs at 640 uM GlcN6P (glucosamine-6-phosphate [2])	self-cleavage kobs at 2500 uM GlcN6P (glucosamine-6-phosphate [3])	self-cleavage kobs at 10000 uM GlcN6P (glucosamine-6-phosphate [4])	self-cleavage kobs at 160 uM GlcN6P (glucosamine-6-phosphate [5])
G59A A64U C67G	< 1e-05 s⁻¹				
A6G A15C U31C A42C	< 1e-05 s⁻¹			< 1e-05 s⁻¹	
G13C A39C U47G	< 1e-05 s⁻¹		< 1e-05 s⁻¹		< 1e-05 s⁻¹
G32C G40C	< 1e-05 s⁻¹	< 1e-05 s⁻¹			< 1e-05 s⁻¹
U30G U69C	0.000101 ± 2.9e-05 s⁻¹	0.00045 ± 0.00019 s⁻¹	6.49e-05 ± 3.1e-05 s⁻¹	0.000535 ± 0.00011 s⁻¹	
G32C G35C	< 1e-05 s⁻¹	< 1e-05 s⁻¹		< 1e-05 s⁻¹	
A6G A14U U65G	< 1e-05 s⁻¹				
C10A U31G A42U C50G U56A G60U C68G C71A	4.77e-05 ± 2e-05 s⁻¹	0.00298 ± 0.00084 s⁻¹			
G32C G43C A48G	< 1e-05 s⁻¹				
C8G U31C A33U U46C C67A	< 1e-05 s⁻¹			< 1e-05 s⁻¹	
G7A G43U	< 1e-05 s⁻¹	< 1e-05 s⁻¹	< 1e-05 s⁻¹	< 1e-05 s⁻¹	< 1e-05 s⁻¹
G32A U54A C61G	< 1e-05 s⁻¹	< 1e-05 s⁻¹		< 1e-05 s⁻¹	
A39G C61U	< 1e-05 s⁻¹			3.27e-05 ± 1.1e-05 s⁻¹	
G59U C61G A64G	< 1e-05 s⁻¹	< 1e-05 s⁻¹	< 1e-05 s⁻¹	< 1e-05 s⁻¹	
G60U C71U	< 1e-05 s⁻¹	< 1e-05 s⁻¹		< 1e-05 s⁻¹	< 1e-05 s⁻¹
A39U A42G U65A	4.73e-05 ± 1.7e-05 s⁻¹			0.00165 ± 0.00027 s⁻¹	
U54A U55C	0.00104 ± 0.00016 s⁻¹	0.00479 ± 0.001 s⁻¹	0.0235 ± 0.0076 s⁻¹	0.0628 ± 0.022 s⁻¹	0.00215 ± 0.00046 s⁻¹
G37U C68A	< 1e-05 s⁻¹			< 1e-05 s⁻¹	
U30A G37U G44U U45A C70U	< 1e-05 s⁻¹			< 1e-05 s⁻¹	
C10U G32A G43A C71A	< 1e-05 s⁻¹				
A6U G26A A48U A52G	< 1e-05 s⁻¹				< 1e-05 s⁻¹
G13A G41C C61A	< 1e-05 s⁻¹	< 1e-05 s⁻¹			< 1e-05 s⁻¹
U31G A42U C50U C61G	< 1e-05 s⁻¹			< 1e-05 s⁻¹	
G59U G63U	< 1e-05 s⁻¹	< 1e-05 s⁻¹	< 1e-05 s⁻¹		< 1e-05 s⁻¹

Variant	self-cleavage kobs at 40 uM GlcN6P (glucosamine-6-phosphate [1])	self-cleavage kobs at 640 uM GlcN6P (glucosamine-6-phosphate [2])	self-cleavage kobs at 2500 uM GlcN6P (glucosamine-6-phosphate [3])	self-cleavage kobs at 10000 uM GlcN6P (glucosamine-6-phosphate [4])	self-cleavage kobs at 160 uM GlcN6P (glucosamine-6-phosphate [5])
A12G G13U U31C U49G	< 1e-05 s⁻¹				
G32C G41C	< 1e-05 s⁻¹	< 1e-05 s⁻¹	< 1e-05 s⁻¹	< 1e-05 s⁻¹	< 1e-05 s⁻¹
G32U G40C C61U C67A	< 1e-05 s⁻¹				
U46C A52C	< 1e-05 s⁻¹				< 1e-05 s⁻¹
A36U U55G	< 1e-05 s⁻¹				
A12U G44A C67U	0.00174 ± 0.00037 s⁻¹			0.0153 ± 0.006 s⁻¹	
G38A G41U	< 1e-05 s⁻¹	< 1e-05 s⁻¹		< 1e-05 s⁻¹	< 1e-05 s⁻¹
A6C U31C G59U	< 1e-05 s⁻¹				
C34A A64G	< 1e-05 s⁻¹		< 1e-05 s⁻¹		< 1e-05 s⁻¹
A14U U56G	0.000924 ± 0.00012 s⁻¹	0.0066 ± 0.0011 s⁻¹	0.0108 ± 0.0026 s⁻¹	0.0462 ± 0.0095 s⁻¹	0.00383 ± 0.00078 s⁻¹
G44U C50U A53C	< 1e-05 s⁻¹	< 1e-05 s⁻¹	< 1e-05 s⁻¹		
G9C G32C C68A	< 1e-05 s⁻¹	< 1e-05 s⁻¹	< 1e-05 s⁻¹	< 1e-05 s⁻¹	
C10U A15U G44U U46G G63U A64G	< 1e-05 s⁻¹			< 1e-05 s⁻¹	
G51C C58U C68A	< 1e-05 s⁻¹				
G35A U65A	< 1e-05 s⁻¹	< 1e-05 s⁻¹	< 1e-05 s⁻¹	< 1e-05 s⁻¹	< 1e-05 s⁻¹
U55A U69C	0.000718 ± 0.00017 s⁻¹	0.000329 ± 0.0001 s⁻¹	7.69e-05 ± 3e-05 s⁻¹	0.00148 ± 0.0004 s⁻¹	0.000108 ± 3.1e-05 s⁻¹
G51C G62A	< 1e-05 s⁻¹	< 1e-05 s⁻¹	< 1e-05 s⁻¹	< 1e-05 s⁻¹	
U31G U45C U49G	< 1e-05 s⁻¹	< 1e-05 s⁻¹		< 1e-05 s⁻¹	
A36C C58G U69G	7.56e-05 ± 2.1e-05 s⁻¹			5.12e-05 ± 1.9e-05 s⁻¹	
G7C C58U	< 1e-05 s⁻¹		< 1e-05 s⁻¹	< 1e-05 s⁻¹	
G41A G62U	< 1e-05 s⁻¹	< 1e-05 s⁻¹		< 1e-05 s⁻¹	< 1e-05 s⁻¹
G9A C58U	< 1e-05 s⁻¹	< 1e-05 s⁻¹	< 1e-05 s⁻¹	< 1e-05 s⁻¹	< 1e-05 s⁻¹
C10U A12G U46A U47G U49G	< 1e-05 s⁻¹				
A12G A52C C67G C71U	< 1e-05 s⁻¹		< 1e-05 s⁻¹		

Variant	self-cleavage kobs at 40 uM GlcN6P (glucosamine-6-phosphate [1])	self-cleavage kobs at 640 uM GlcN6P (glucosamine-6-phosphate [2])	self-cleavage kobs at 2500 uM GlcN6P (glucosamine-6-phosphate [3])	self-cleavage kobs at 10000 uM GlcN6P (glucosamine-6-phosphate [4])	self-cleavage kobs at 160 uM GlcN6P (glucosamine-6-phosphate [5])
U54C G60A	< 1e-05 s⁻¹				
G38U G41A U69G	< 1e-05 s⁻¹	< 1e-05 s⁻¹	< 1e-05 s⁻¹		< 1e-05 s⁻¹
U47G C68U	4.04e-05 ± 8.8e-06 s⁻¹	0.000601 ± 0.00012 s⁻¹	0.0005 ± 0.00011 s⁻¹	0.0017 ± 0.00029 s⁻¹	
A33G A52U	< 1e-05 s⁻¹	< 1e-05 s⁻¹		< 1e-05 s⁻¹	
G32U U55G A64U	< 1e-05 s⁻¹				
G9C G37A G60C U65A	< 1e-05 s⁻¹		< 1e-05 s⁻¹		
A33G U46G G62C	< 1e-05 s⁻¹	< 1e-05 s⁻¹	< 1e-05 s⁻¹		
A14C G32A A52U	< 1e-05 s⁻¹		5.9e-05 ± 2.1e-05 s⁻¹	9.78e-05 ± 1.9e-05 s⁻¹	
G37A A52C C61A	< 1e-05 s⁻¹			< 1e-05 s⁻¹	
C34A A39C	< 1e-05 s⁻¹		< 1e-05 s⁻¹	< 1e-05 s⁻¹	< 1e-05 s⁻¹
G32U G59A	< 1e-05 s⁻¹	< 1e-05 s⁻¹			< 1e-05 s⁻¹
G37U G44C	< 1e-05 s⁻¹	< 1e-05 s⁻¹			< 1e-05 s⁻¹
G59U G60U	< 1e-05 s⁻¹	< 1e-05 s⁻¹	< 1e-05 s⁻¹		< 1e-05 s⁻¹
C8U G38C G44U A48C	< 1e-05 s⁻¹				
C11U U31A G38U U49A U54G	< 1e-05 s⁻¹				
G9A A14C	< 1e-05 s⁻¹		< 1e-05 s⁻¹		< 1e-05 s⁻¹
G35A A48U	< 1e-05 s⁻¹	< 1e-05 s⁻¹	< 1e-05 s⁻¹	< 1e-05 s⁻¹	< 1e-05 s⁻¹
G9U U45G	< 1e-05 s⁻¹	< 1e-05 s⁻¹	< 1e-05 s⁻¹	< 1e-05 s⁻¹	< 1e-05 s⁻¹
G9U C10U A36U G51A C70G	< 1e-05 s⁻¹				
A6U G29U C50U G66C	< 1e-05 s⁻¹			< 1e-05 s⁻¹	
G9U G62C	< 1e-05 s⁻¹			< 1e-05 s⁻¹	< 1e-05 s⁻¹
A12G A42C U46C C61G	< 1e-05 s⁻¹			< 1e-05 s⁻¹	
